Experimental data reported in patent US6258776A, “Calcium-regulated kinase” (priority 1997, dated 2001).
“Also recorded” adds a separate entry of the source.

Experiments:
GST-Ndr [1] = target: T1, GST-Ndr (Homo sapiens, UniProt Q15208); experiment: Ndr peptide substrate phosphorylation assay; assay type: biochemical; details: 0.5 mg/ml peptide, 3 h at 30° C., KKRNRRLSVA = 100%
T1 construct: made in house
Method: When incubated in vitro with Mg-ATP, Ndr incorpora tes phosphate by an intramolecular autophosphorylation mechanism (Millward, T. A., et al., (1995) Proc. Natl. Acad. Sci. USA 92, 5022-5026). […] To develop a convenient in vitro kinase assay for Ndr, an assembled library of synthetic peptides is screened for potential Ndr substrates. 5 μg GST-Ndr WT or GST-Ndr K118A (Miliward, T. A., et al., (1995) Proc. Natl. Acad. Sci. USA 92, 5022-5026), immobilised on 2.5 μl glutathione-agarose beads (Sigma), is assayed in a 25 μl reaction containing 50 mM Tris-HCl pH 7.5, […] MgCl2, 1 mM dithiothreitol, 100 μM [γ-^32 P] ATP (0.3 μCi/μl) and 0.5 mg/ml peptide. After incubation at 3 h at 30° C. (during which time phosphate incorporation into peptides is linear), aliquots of the reaction are spotted onto 2 cm^2 squares of P81 phosphocellulose paper (Whatman), which are then washed 5×5 min in 1% phosphoric acid and once in acetone, before counting in a liquid scintillation counter.
Several peptides are identified which could serve as Ndr substrates (Table 1; SEQ. ID. No. 1 to 31). By comparing the efficiency of phosphorylation of the various peptides, several conclusions regarding the substrate specificity of Ndr can be drawn. […] Secondly, most of the peptides which are detectably phosphorylated contained a basic amino acid at position -6 relative to the phosphoaccepting serine. […] A basic amino acid at -6 is however not sufficient for substrate recognition, since this peptide is also not phosphorylated. Thirdly, a basic residue at -5 appeared to be also important, although not essential, for efficient phosphorylation by Ndr. Basic amino acids at -3, -2 and -7 are also important. Proline at +1 appears to be inhibitory, whilst the presence of amino acids carboxy-terminal to the phosphoacceptor is important, removal of the residue at +2 reducing activity. The best Ndr substrate from these series of peptides is ([…], SEQ. ID. No. 1), and this peptide is used for Ndr kinase assays in subsequent experiments.

S100B = experiment: co-immunoprecipitation of Ndr with anti-S100B from COS-1 cells; assay type: cell-based; details: co-expressed with S100B
Method: For expression of Ndr and S100B in mammalian cells, the cDNAs encoding Ndr and S100B are cloned into the pECE vector, which directs expression driven by an SV40-derived promoter. In addition, an amino-terminal truncation mutant of Ndr lacking the first 84 amino acids (1-84) is used.
The plasmids encoding Ndr and S100B are transfected into COS-1 cells, either alone or in combination. Seventy-two hours later, cells extracts are prepared and immunoprecipitated with an antibody recognising S100B. In an anti-Ndr western blot of the cell extracts, it is shown that Ndr is expressed an expected.

calmodulin (CaM-agarose) = experiment: binding of Ndr and deletion mutants from COS-1 cell lysates to CaM-agarose; details: lysates supplemented with Ca^2+
Text: In addition, the ability of untagged Ndr to interact with CaM is investigated. COS-1 cells are transfected with pECE or with derivative plasmids encoding wild-type Ndr, NdrΔ65-81 or NdrΔ1-84 (Millward, T. A., et al., (1995) Proc. Natl. Acad. Sci. USA 92, 5022-5026) using DEAE-dextran (Seed, B. and Aruffo, A. (1987) Proc. Natl. Acad. Sci. USA 84, 3365-3369). Seventy-two hours after transfection, cells are scraped into ice-cold phosphate-buffered saline (PBS), spun down, and disrupted in buffer A (TBS containing 1 mM dithiothreitol, 0.5 mM phenylmethylsulfonyl fluoride, 4 μM leupeptin and 1 mM benzamidine) using a tight-fitting all-glass dounce homogenizer. Extracts (20 μg) are adjusted to 1 mg/ml, supplemented with either 1 mM CaCl2 or 1 mM EGTA and then mixed for 2 h with 6 μl CaM-agarose. After washing three times with 1 ml of the corresponding binding buffer, the beads are eluted with buffer A containing 5 mM EGTA. Equal portions of the unbound and EGTA-eluted fractions are analysed by immunoblofting with anti-Ndr antibodies.
Samples are separated by SDS-PAGE and electroblotted to Immobilon-P membranes (Millipore). Blots are incubated in blocking buffer (50 mM Tris-HCl pH 7.5, 150 mM NaCl, 1% (v/v) Triton X-1 00, 0.5% (v/v) Tween 20, 5% (w/v) skim milk powder) and then probed for 2 h with primary antibodies diluted in the same buffer. Ndr and GST-Ndr are detected with Ab^452-465 at 4 μg/ml (Millward, T. A., et al., Op. Cit.); GST is detected with an anti-GST antiserum (1 :1000 dilution). Bound antibodies are detected using horseradish peroxidase-conjugated donkey anti-rabbit IgG antibodies and ECL substrates (Amersham).
To verify whether this domain of Ndr is indeed responsible for its interaction with CaM, deletion mutants of Ndr are expressed in COS-1 cells and tested for CaM binding as above. […] In lysates supplemented with Ca^2 , deletion of amino acids 65-81 cause a large reduction in CaM binding (to ~10% of the level of wild-type binding) as assessed by western blotting.

[2] = immune complex kinase assay, basal kinase activity of Ndr mutants; assay type: biochemical; details: compared with wild-type Ndr
Method: In immune complex kinase assays and autophosphorylation assays (see below), COS-1 cells are transfected as described above or with pECE-Ndr-K118A. After 72 h, cells are washed with ice-cold PBS and lysed in lysis buffer (20 mM Tris-HCl pH 8.0, 150 mM NaCl, 1% (v/v) NP-40, 10% (v/v) glycerol, 5 mM EDTA, 0.5 mM EGTA, 0.5 mM phenylmethyl-sulfonyl fluoride, 4 μM leupeptin, 1 mM benzamidine, 1 μM microcystin and 1 mM Na3 VO4). Lysates are centrifuged at 14,000 g for 20 min. Duplicate aliquots of supernatant (250 μg, 2.5 mg/ml) are incubated for 2 h at 0° C. with 10 μg/ml Ab^1-465. Immune complexes are precipitated by addition of 2 μl protein A-Sepharose (Pharmacia) and mixing for 1 h. The beads are then washed twice with lysis buffer, once with lysis buffer containing 1 M NaCl, with lysis buffer again, and finally twice with 20 mM Tris-HCl pH 7.5. Beads are resuspended in 30 μl buffer containing 20 mM Tris-HCl pH 7.5, 10 mM MgCl2, 100 μM CaCl2, 1 mM dithiothreitol, 100 μM [γ-^32 P] ATP (0.5 μCi/μls), 1 mM Ndr substrate peptide ([…], SEQ. ID. No. 1), 1 μM cAMP-dependent protein kinase inhibitor peptide (PKI; purchased from Bachem, Bubendorf, Swit zerland), 4 μM leupeptin, 1 mM benzamidine, 1 μM microcystin and, in some assays, 20 μM bovine S100B. After 60 min at 30° C., phosphate incorporation into the peptide is quantitated as described above. […]

Ndr = details: transphosphorylation; cited from earlier work
HA-Ndr WT [3] = details: 10 nM, 1 h
Method: COS-1 cells expressing HA-Ndr WT (as in Example 5) are treated either with solvent alone (Control) or with a panel of cell permeable protein phosphatase inhibitors. The cells are then extracted, HA-Ndr is immunoprecipitated with the anti-HA mAb 12CA5, and the kinase activity of Ndr measured as before, using the peptide substrate.

[4] = system: protein phosphatase 1 (PP1); details: 10 nM calyculin A; cited from earlier work
PP2A = details: 10 nM calyculin A; cited from earlier work
HA-Ndr WT [5] = experiment: A23187 treatment of COS-1 cells co-expressing HA-Ndr WT and S100B, Ndr kinase activity; assay type: cell-based; details: 20 μM A23187
Method: In order to provide direct evidence that Ca^2+ /S100B regulates Ndr activity in vivo, COS-1 cells are co-transfected with expression constructs for Ndr and S100B (pECE-HA-Ndr, which expresses haemaglutinin epitope-tagged Ndr from an SV40 promoter, and pECE-S100B). Two Ndr constructs are used, expressing either wild-type Ndr (Ndr WT) or Ndr lacking the previously identified S100B binding domain (Ndr Δ65-81).Then, the cells are treated for various lengths of time with 20 μM A23187, a calcium ionophore.

GST-Ndr [6] = target: T1, GST-Ndr; experiment: GST-Ndr peptide kinase assay with calcium-binding proteins; assay type: biochemical; details: added together with Ca^2+; 60 min, 30° C.
Method: 1 μg GST-Ndr WT or GST-Ndr K118A, either in solution or immobilised on glutathione-agarose beads, is assayed in a 20 μl reaction containing 20 mM Tris-HCl pH 7.5, 5 mM MgCl2, 1 mM dithiothreitol, 100 μM [γ-^32 P] […] Reactions are supplemented with either 2 mM EGTA or various concentrations of CaCl2. Bovine CaM, bovine S100B (both from Sigma) or recombinant calcium-binding proteins. After incubation at 30° C. for 60 min, aliquots of the reaction are spotted on to P81 phosphocellulose paper and counted as above.
In brief, coding regions are cloned into the PGEMEX expression vector (Promega) and resultant plasmids used to transform E. coli BL-21 LysS cells. After induction, S100 proteins are purified by ammonium sulphate precipitation followed by Ca^2+ -dependent phenyl-Sepharose chromatography.
The proteins are added together with Ca^2+ into GST-N dr peptide kinase assays. The proteins tested comprised S100A1 (S100α), S100A2 (S100L), S100A4 (CAPL), S100A6 (calcyclin) and S100B (S100β); α-parvalbumin is included as a negative control.
In order to estimate the binding affinity of S100B for Ndr, kinase assays are performed in which GST-Ndr is mixed with various concentrations of purified bovine S100B homodimer, in the presence or absence of calcium.
To determine whether activation of Ndr by S100B occurs at physiological Ca^2+ concentrations, Ndr activity is assayed with or without added S100B over a range of Ca^2+ concentrations.

T1 sequence (Q15208 whole entry): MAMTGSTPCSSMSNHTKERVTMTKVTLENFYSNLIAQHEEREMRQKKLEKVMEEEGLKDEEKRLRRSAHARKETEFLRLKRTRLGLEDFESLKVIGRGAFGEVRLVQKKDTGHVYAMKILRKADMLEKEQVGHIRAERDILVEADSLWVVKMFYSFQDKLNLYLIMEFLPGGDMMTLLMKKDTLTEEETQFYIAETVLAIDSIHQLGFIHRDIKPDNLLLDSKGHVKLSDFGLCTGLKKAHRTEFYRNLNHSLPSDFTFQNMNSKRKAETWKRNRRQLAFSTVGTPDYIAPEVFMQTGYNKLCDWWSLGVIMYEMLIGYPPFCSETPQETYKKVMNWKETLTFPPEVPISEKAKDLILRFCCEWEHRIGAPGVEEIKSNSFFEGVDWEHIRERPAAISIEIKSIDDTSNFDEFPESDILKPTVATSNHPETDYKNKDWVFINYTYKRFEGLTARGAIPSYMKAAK

Relative Ndr Activity (GST-Ndr [1]) [%] | Molecule | also measured
0 | AARNRTLSVA [SEQ. ID. No. 7] | –
15 | KKRNARLSVA [SEQ. ID. No. 4] | –
24 | KKRNRTLSV [SEQ. ID. No. 8] | –
30 | KKRNRALSVA [SEQ. ID. No. 5] | –
0 | KKRNRTLTV [SEQ. ID. No. 9] | –
18 | KKLNRRLSVA [SEQ. ID. No. 3] | –
0 | KKRNRTLSPA [SEQ. ID. No. 10] | –

The remaining lines, values behind:

Molecule | Relative Ndr Activity (GST-Ndr [1]) [%] | also measured
Δ1-84: Ndr deletion mutant lacking the complete amino terminal domain | – | co-immunoprecipitation with anti-S100B (S100B): abolishes co-immunoprecipitation; binding to CaM-agarose (calmodulin (CaM-agarose)): no longer detectable; basal kinase activity [2]: only slightly reduced; also recorded: reduced basal kinase activity
KKRNRTLSVA [SEQ. ID. No. 6] | 60 | –
KKRNRRLSVA [SEQ. ID. No. 1] | 100 | –
casein | – | substrate of Ndr (Ndr): not substrates of Ndr
myelin basic protein | – | substrate of Ndr (Ndr): not substrates of Ndr
COC[C@@H]([C@H](O)[C@H](O)C(=O)NCC[C@H](C)c1nc(/C=C/C[C@@H]2O[C@]3(C[C@@H](O)[C@@H]2C)O[C@H]([C@H](C[C@H](O)[C@H](C)[C@H](O)[C@H](C)/C=C(C)/C(C)=C/C=C/C(C)=C\C#N)OC)[C@H](OP(=O)(O)O)C3(C)C)co1)N(C)C [calyculin A] | – | activation of Ndr (HA-Ndr WT [3]): ~ 4 fold; inhibition of PP1 [4]: ~ 50%; inhibition of PP2A (PP2A): ~ 50%
KARNRRLSVA (LARNRRLSVA) [SEQ. ID. No. 2] | 39 | –
CNc1ccc2oc(C[C@H]3O[C@@]4(CC[C@H]3C)O[C@H]([C@H](C)C(=O)c3ccc[nH]3)[C@H](C)C[C@H]4C)nc2c1C(=O)O [A23187] | – | activation of HA-Ndr (HA-Ndr WT [5]): activation of HA-Ndr WT
S100A1: S100 family protein, phylogenetically the closest known relative of S100B | – | increase in Ndr kinase activity (GST-Ndr [6]): 2-3 fold
